These results are taken from paper PMC11310338.

Where two headings read alike, the source gives them in different places.

Data set [1] has as its target T1, SCAF4-CID (human, UniProt O95104 1-139).
T1 sequence: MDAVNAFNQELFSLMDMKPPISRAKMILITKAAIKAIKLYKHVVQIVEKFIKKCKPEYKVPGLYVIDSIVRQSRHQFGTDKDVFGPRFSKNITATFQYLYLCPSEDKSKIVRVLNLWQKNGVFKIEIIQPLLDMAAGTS
The experiment in a line: SPR. (SPR reads the build-up and loss of mass on a sensor chip optically.)

Data set [2] addresses T1, SCAF4-CID. The experiment in a line: competition FP.
The target of data set [3] is T1, SCAF4-CID. The data set is described as follows: competition FP. This is another data set of the same source.
Data set [4] concerns the target T1, SCAF4-CID. The data set is described as follows: fluorescence polarization. (In fluorescence polarisation assays a small probe gives low polarisation when free and higher when bound to something large.)
Data set [5] deals with T2, SCAF8-CID (human, UniProt Q9UPN6 1-139).
T2 sequence: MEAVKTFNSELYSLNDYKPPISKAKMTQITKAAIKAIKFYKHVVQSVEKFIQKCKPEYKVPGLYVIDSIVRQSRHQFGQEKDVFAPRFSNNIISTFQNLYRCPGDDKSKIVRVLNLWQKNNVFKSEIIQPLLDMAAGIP
The experiment in a line: SPR.

Data set [6] deals with T2, SCAF8-CID. The data set is described as follows: competition FP.
Data set [7] has as its target T3, WDR5 (human, UniProt P61964 1-334). The data set is described as follows: competition FP.
The target of data set [8] is WDR5 L240K (human, UniProt P61964 1-334, L240K). The experiment in a line: fluorescence polarization.
Data set [9] addresses T3, WDR5. The experiment in a line: fluorescence polarization.
Data set [10] addresses T3, WDR5. The experiment in a line: SPR.

GGTGGGGA (ssDNA) [F1_8-nt] showed a Kd in data set [1] of 88.6 ± 15.1 nM. The same molecule registered an IC50 in data set [2] of 554 ± 106 nM.

For the molecule GTGGG (ssDNA) [SCAF4_LS (D2_5-nt)], the figures for the IC50 in data set [3] and in [6] were 2750 ± 682 nM and 1960 ± 240 nM, respectively. The Kd in data set [4] amounted to 189 ± 40.1 nM; in data set [1], 140 ± 40.1 nM; in data set [5], 76.4 ± 7.33 nM.

For the molecule GGGGTGGGGAG (ssDNA) [SRiApt-1 (F3_11-nt)], the Kd in data set [1] stood at 58.4 ± 5.8 nM; in [5] it was 56.3 ± 7.42 nM. This molecule came in with an IC50 in data set [6] of 1500 ± 690 nM.

GGGGGCTGGACCCCTCAACT (structured_DNA) [WMiApt-1] displayed an IC50 in [7] of 0.431 ± 0.134 µM. For the same molecule, the binding result in data set [8] is “binds”. Moreover, the Kd in data set [9] is 797 ± 95.2 nM; in data set [10] it was 138 ± 86.7 nM.

In data set [1], AGGTGGGT (ssDNA) [B2_8-nt] registered a Kd of 297 ± 48.1 nM. In data set [2], the IC50 was found to be 1040 ± 419 nM.

Molecule TGGTGGGA (ssDNA) [D1_8-nt] returned an IC50 in data set [2] of 1270 ± 864 nM.

Consider TTAAAGGGGTGGGGAGTCAT (ssDNA) [SRiApt-3], for which binding in data set [1] was characterised by a dissociation constant (Kd) of 22.7 ± 1 nM. The IC50 was found to be 285 ± 26.6 nM in data set [2] and 291 ± 19.7 nM in data set [6].

GGACC (ssDNA) [WDR5 lead sequence (H4)]: the IC50 in [7] is 8.5 ± 4.25 µM.

CAGGTGGGTTC (ssDNA) [SRiApt-2 (F7_11-nt_B)] yielded a Kd in [5] of 90.5 ± 25.8 nM. The IC50 was found to be 400 ± 143 nM in [2] and 2690 ± 1430 nM in [6].

One may read the Kd as the concentration at which binding is half-saturated. The low end stands for tighter binding, the high end for weaker binding. By IC50 is commonly meant the point on the concentration scale where inhibition reaches its midpoint.
